Test results from article PMC11785096.

Target: another dynein heavy chain (unidentified second DHC of dynein-X) (Lytechinus variegatus (endogenous in sperm))
Experiment: cryo-EM structure

For “DNAHX (dynein heavy chain, XP_041462850) (natural protein)”, the percent of DNAHX particles in a two-headed dynein complex (open conformation) was 27% and the percent of DNAHX particles in phi particle dynein was 13%.
